Data set [1] concerns the molecule itself. Description: crystal structure.
Data set [2] deals with the molecule itself. As to the kind of experiment: SEC.

Here are results for two proteins from paper PMC5507626 (Structure (London, England : 1993), 2017).

B1: TPR(2-142) F113M (domain or fragment, human, UniProt P12270 2-142, looked up)
chain: AAVLQQVLERTELNKLPKSVQNKLEKFLADQQSEIDGLKGRHEKFKVESEQQYFEIEKRLSHSQERLVNETRECQSLRLELEKLNNQLKALTEKNKELEIAQDRNIAIQSQMTRTKEELEAEKRDLIRTNERLSQELEYLT
modifications: selenomethionine (SeMet construct)
B1: the “stoichiometry N” value in data set [1] came to 4.

B2: TPR(2-142) F55M/F113M (domain or fragment, human, UniProt P12270 2-142, looked up)
chain: AAVLQQVLERTELNKLPKSVQNKLEKFLADQQSEIDGLKGRHEKFKVESEQQYMEIEKRLSHSQERLVNETRECQSLRLELEKLNNQLKALTEKNKELEIAQDRNIAIQSQMTRTKEELEAEKRDLIRTNERLSQELEYLT
modifications: selenomethionine (SeMet construct)
As for B2, the “stoichiometry N” value in data set [2] stood at 4; in data set [1], 2.

For orientation: stoichiometry N means a count of units in the complex or per binding partner.
